# Laboratory results reported in patent US20230303994.
# Where a chain is given by its changes, count along the chain named.
# B1: trypsin variant SEQ ID NO: 52 (protein)
# chain: IVGGYTCAANSIPYQVSLNSGSHRCGGSLINSQWVVSAAHCYKLRIQVRLGEHNIDVLEGNEQFINAAKIITHPNFNGNTLDNDIMLIKLSSPATLNSRVATVSLPRSCAAAGTECLISGWGNTKSSGSSYPSLLQCLKAPVLSDSSCKSSYPGQITGNMICVGFLEGGKDACQGDSGGPVVCNGQLQGIVSSGYGCAQKNKPGVYTKVCNYVNWIQQTIAAN
# B2: trypsin variant SEQ ID NO: 127 (protein)
# chain: B1 chain with L44Y
# B3: trypsin variant SEQ ID NO: 16 (protein)
# chain: B1 chain with L44S, K125G
# B4: trypsin variant SEQ ID NO: 126 (protein)
# chain: B1 chain with R24E, L44S
# B5: trypsin variant SEQ ID NO: 129 (protein)
# chain: B1 chain with L44S, S193N
# B6: trypsin variant SEQ ID NO: 128 (protein)
# chain: B1 chain with L44S, Y131P
# B7: trypsin variant SEQ ID NO: 71 (protein)
# chain: B1 chain with L44S, S193T
# B8: trypsin variant SEQ ID NO: 30 (protein)
# chain: B1 chain with R24S, L44S
# B9: trypsin variant SEQ ID NO: 17 (protein)
# chain: B1 chain with L44S, K125Y
# B10: trypsin variant SEQ ID NO: 20 (protein)
# chain: B1 chain with L44S, K125E
# B11: trypsin variant SEQ ID NO: 21 (protein)
# chain: B1 chain with L44S, K125H
# B12: trypsin variant SEQ ID NO: 69 (protein)
# chain: B1 chain with L44S, S193F
# B13: trypsin variant SEQ ID NO: 60 (protein)
# chain: B1 chain with L44S, R107S
# B14: trypsin variant SEQ ID NO: 123 (protein)
# chain: B1 chain with R24G, L44S
# B15: trypsin variant SEQ ID NO: 68 (protein)
# chain: B1 chain with L44S, Y131D
# B16: trypsin variant SEQ ID NO: 72 (protein)
# chain: B1 chain with L44S, G78S
# B17: trypsin variant SEQ ID NO: 54 (protein)
# chain: B1 chain with L44S, D56A
# B18: trypsin variant SEQ ID NO: 114 (protein)
# chain: B1 chain with L44P, D56H, R99A, R107T, K125A, K170A, A172S
# B19: trypsin variant SEQ ID NO: 15 (protein)
# chain: B1 chain with L44S, K125A
# B20: trypsin variant SEQ ID NO: 120 (protein)
# chain: B1 chain with L44S, K125P
# B21: trypsin variant SEQ ID NO: 23 (protein)
# chain: B1 chain with L44S, K125Q
# B22: trypsin variant SEQ ID NO: 8 (protein)
# chain: B1 chain with L44S, R99G
# B23: trypsin variant SEQ ID NO: 65 (protein)
# chain: B1 chain with L44S, Y131G
# B24: trypsin variant SEQ ID NO: 61 (protein)
# chain: B1 chain with L44S, R107D
# B25: trypsin variant SEQ ID NO: 122 (protein)
# chain: B1 chain with L44S, K170F
# B26: trypsin variant SEQ ID NO: 62 (protein)
# chain: B1 chain with L44S, Y131V
# B27: trypsin variant SEQ ID NO: 124 (protein)
# chain: B1 chain with L44S, Y131K
# B28: trypsin variant SEQ ID NO: 121 (protein)
# chain: B1 chain with L44S, K170I
# B29: trypsin variant SEQ ID NO: 66 (protein)
# chain: B1 chain with L44S, Y131S
# B30: trypsin variant SEQ ID NO: 58 (protein)
# chain: B1 chain with L44S, R107P
# B31: trypsin variant SEQ ID NO: 55 (protein)
# chain: B1 chain with L44S, D56W
# B32: trypsin variant SEQ ID NO: 76 (protein)
# chain: B1 chain with L44S, G78E
# B33: trypsin variant SEQ ID NO: 12 (protein)
# chain: B1 chain with L44S, R99D
# B34: trypsin variant SEQ ID NO: 22 (protein)
# chain: B1 chain with L44S, K125L
# B35: trypsin variant SEQ ID NO: 112 (protein)
# chain: B1 chain with L44P, D56H, G78P, R99H, R107T, K125S, K170A, A172S
# B36: trypsin variant SEQ ID NO: 29 (protein)
# chain: B1 chain with R24L, L44S
# B37: trypsin variant SEQ ID NO: 75 (protein)
# chain: B1 chain with L44S, G78Y
# B38: trypsin variant SEQ ID NO: 7 (protein)
# chain: B1 chain with L44S, R99W
# B39: trypsin variant SEQ ID NO: 28 (protein)
# chain: B1 chain with R24V, L44S
# B40: trypsin variant SEQ ID NO: 13 (protein)
# chain: B1 chain with L44S, R99E
# B41: trypsin variant SEQ ID NO: 125 (protein)
# chain: B1 chain with R24D, L44S
# B42: trypsin variant SEQ ID NO: 70 (protein)
# chain: B1 chain with L44S, S193Y
# B43: trypsin variant SEQ ID NO: 27 (protein)
# chain: B1 chain with L44S, K170N
# B44: trypsin variant SEQ ID NO: 26 (protein)
# chain: B1 chain with L44S, K170G
# B45: trypsin variant SEQ ID NO: 67 (protein)
# chain: B1 chain with L44S, Y131Q
# B46: trypsin variant SEQ ID NO: 63 (protein)
# chain: B1 chain with L44S, Y131I
# B47: trypsin variant SEQ ID NO: 64 (protein)
# chain: B1 chain with L44S, Y131W
# B48: trypsin variant SEQ ID NO: 130 (protein)
# chain: B1 chain with L44S, S193C
# B49: trypsin variant SEQ ID NO: 31 (protein)
# chain: B1 chain with R24Q, L44S
# B50: trypsin variant SEQ ID NO: 59 (protein)
# chain: B1 chain with L44S, R107G
# Target: pre-pro-human insulin
Protein,Activity PPI cleavage,Selectivity
B1,yes,>90%
B2,yes,20.5%
B3,yes,>90%
B4,yes,7.2%
B5,yes,44.8%
B6,yes,57.1%
B7,yes,>62.1%
B8,yes,>70%
B9,yes,>80%
B10,yes,>90%
B11,yes,>90%
B12,yes,>70%
B13,yes,>90%
B14,yes,60.7%
B15,yes,>70%
B16,yes,>90%
B17,yes,>90%
B18,yes,>90%
B19,yes,>90%
B20,yes,1.4%
B21,yes,>90%
B22,yes,>90%
B23,yes,>80%
B24,yes,>80%
B25,yes,59.4%

Protein,Activity PPI cleavage,Selectivity
B26,yes,>90%
B27,yes,27.6%
B28,yes,4.6%
B29,yes,>90%
B30,yes,>90%
B31,yes,>90%
B32,yes,>90%
B33,yes,>90%
B34,yes,>90%
B35,yes,>90%
B36,yes,>90%
B37,yes,>90%
B38,yes,>90%
B39,yes,>90%
B40,yes,>90%
B41,yes,12.2%
B42,yes,>70%
B43,yes,>80%
B44,yes,>80%
B45,yes,>90%
B46,yes,>90%
B47,yes,>90%
B48,yes,33.8%
B49,yes,>62.1%
B50,yes,>90%
